Measurements from PMC7472415 (Viruses, 2020).

Molecular target: B/NP_TAIL mut1-YFP, B/NP_TAIL-YFP with point mutations in the positive charge patch of the NLS (influenza B virus B/Memphis/13/03)
Assay: SPR

Chain of human importin-α7 without its importin-β binding (IBB) domain (residues 58 to 536) (O60684 58-536): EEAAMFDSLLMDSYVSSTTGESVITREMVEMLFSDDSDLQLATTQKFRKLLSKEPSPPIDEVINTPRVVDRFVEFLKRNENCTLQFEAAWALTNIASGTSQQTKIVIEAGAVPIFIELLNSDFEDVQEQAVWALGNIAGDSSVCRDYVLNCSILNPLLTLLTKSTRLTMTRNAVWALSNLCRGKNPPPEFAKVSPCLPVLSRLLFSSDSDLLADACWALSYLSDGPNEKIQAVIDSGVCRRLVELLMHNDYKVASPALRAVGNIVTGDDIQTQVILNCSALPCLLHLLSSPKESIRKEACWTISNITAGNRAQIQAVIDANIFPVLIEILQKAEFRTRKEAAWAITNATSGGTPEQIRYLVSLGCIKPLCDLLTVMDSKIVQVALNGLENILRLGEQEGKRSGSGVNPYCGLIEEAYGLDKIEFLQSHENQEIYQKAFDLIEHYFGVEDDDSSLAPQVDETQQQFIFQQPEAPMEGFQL
Chain of human importin-α5 without its importin-β binding (IBB) domain (residues 66 to 538) (P52294 66-538): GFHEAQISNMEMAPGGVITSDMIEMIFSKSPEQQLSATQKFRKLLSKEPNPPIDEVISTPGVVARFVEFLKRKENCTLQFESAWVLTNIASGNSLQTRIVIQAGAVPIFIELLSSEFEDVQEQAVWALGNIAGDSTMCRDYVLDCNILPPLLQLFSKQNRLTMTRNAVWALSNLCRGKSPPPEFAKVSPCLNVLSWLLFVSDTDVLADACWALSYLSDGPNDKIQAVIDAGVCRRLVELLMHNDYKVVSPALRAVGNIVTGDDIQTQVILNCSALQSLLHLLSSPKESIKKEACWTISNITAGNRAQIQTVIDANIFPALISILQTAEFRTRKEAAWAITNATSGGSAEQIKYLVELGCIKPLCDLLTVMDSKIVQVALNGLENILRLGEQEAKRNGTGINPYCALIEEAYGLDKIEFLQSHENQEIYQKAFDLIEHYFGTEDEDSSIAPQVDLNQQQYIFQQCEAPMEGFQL
Chain of human importin-α3 without its importin-β binding (IBB) domain (residues 64 to 521) (O00629 64-521): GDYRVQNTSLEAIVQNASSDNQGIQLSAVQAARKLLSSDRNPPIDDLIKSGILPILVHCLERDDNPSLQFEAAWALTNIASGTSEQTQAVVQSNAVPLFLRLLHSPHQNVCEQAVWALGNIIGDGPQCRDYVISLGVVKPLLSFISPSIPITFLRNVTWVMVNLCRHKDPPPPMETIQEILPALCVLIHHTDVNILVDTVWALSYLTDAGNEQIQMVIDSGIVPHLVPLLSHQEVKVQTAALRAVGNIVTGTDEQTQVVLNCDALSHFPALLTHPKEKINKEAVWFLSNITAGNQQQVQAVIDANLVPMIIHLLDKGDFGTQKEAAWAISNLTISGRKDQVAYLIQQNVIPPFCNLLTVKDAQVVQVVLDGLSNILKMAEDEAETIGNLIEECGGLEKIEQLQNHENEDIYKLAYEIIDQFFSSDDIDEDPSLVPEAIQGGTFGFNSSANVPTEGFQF

Row | Substance | Kd [µM]
1 | human importin-α7 without its importin-β binding (IBB) domain (residues 58 to 536) (from UniProt O60684 58-536) (domain or fragment) | > 5
2 | human importin-α5 without its importin-β binding (IBB) domain (residues 66 to 538) (from UniProt P52294 66-538) (domain or fragment) | > 5
3 | human importin-α3 without its importin-β binding (IBB) domain (residues 64 to 521) (from UniProt O00629 64-521) (domain or fragment) | > 5
